These results are taken from article PMC10484670.

Positions count from the first letter of the chain named. In names and notes the source's numbering stands.

Sequences and labels used below:
T1: eIF4E (wheat, UniProt P29557 1-215)
T1 sequence: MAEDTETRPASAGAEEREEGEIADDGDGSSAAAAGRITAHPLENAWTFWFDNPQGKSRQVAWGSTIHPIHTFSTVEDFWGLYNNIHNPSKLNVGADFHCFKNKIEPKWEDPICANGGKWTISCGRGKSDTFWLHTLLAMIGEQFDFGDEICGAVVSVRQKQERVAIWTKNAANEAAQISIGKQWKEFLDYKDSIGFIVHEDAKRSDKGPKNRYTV

B1: PEMV2 BL3-6 (crystallization, L1 mutant) (structured_RNA)
RNA: GGUAGAACACGUGGGAUAGGGGAUGACCUUGUCGACCGAAACACGGUCCCCUGCUCCUUCGAGCUGGCAAGGCGCUCACAGGUUCUACC
B2: PEMV2 A23G (structured_RNA)
RNA: GGUAGAACACGUGGGAUAGGGGGUGACCUUGUCGACCGGUUAUCGGUCCCCUGCUCCUUCGAGCUGGCAAGGCGCUCACAGGUUCUAC
B3: PEMV2 G21C (structured_RNA)
RNA: B2 RNA with G21C, G23A
B4: PEMV2 C49U (structured_RNA)
RNA: B2 RNA with G23A, C49U
B5: PEMV2 U17C:A18U (structured_RNA)
RNA: B2 RNA with U17C, A18U, G23A
B6: PEMV2 U24C (structured_RNA)
RNA: B2 RNA with G23A, U24C
B7: PEMV2 C49U:G19A (structured_RNA)
RNA: B2 RNA with G19A, G23A, C49U
B8: PEMV2 U52C:A26G (structured_RNA)
RNA: B2 RNA with G23A, A26G, U52C
B9: PEMV2 G21A (structured_RNA)
RNA: B2 RNA with G21A, G23A
B10: PEMV2 U52C (structured_RNA)
RNA: B2 RNA with G23A, U52C
B11: PEMV2 U65C (structured_RNA)
RNA: B2 RNA with G23A, U65C
B12: PEMV2 C50U (structured_RNA)
RNA: B2 RNA with G23A, C50U
B13: PEMV2 C50U:G20A (structured_RNA)
RNA: B2 RNA with G20A, G23A, C50U

The first series addresses T1, eIF4E. The experiment in a line: EMSA. (Mobility shift assays separate free from complexed probe on a gel.)
As for B1, the binding result is “binds”.

Another series has as its target T1, eIF4E. The series is described as follows: EMSA. The source holds these as a separate data set.
Regarding B2, the binding result is reported as “no binding”.

As for B3, the binding result is listed as “no binding”.

With B4, the binding result was “binds”.

Regarding B5, the binding result is “binds”.

On to B6, for which the binding result was “no binding”.

For the molecule B7, the binding result is given as “no binding”.

As to B8, the binding result is “no binding”.

With B9, the binding result is on record as “no binding”.

With B10, the binding result was “no binding”.

Turning to B11, the binding result is reported as “no binding”.

As for B12, the binding result is listed as “no binding”.

As to B13, the binding result was “no binding”.
